# B1: K100: lysine homopolypeptide (peptide)
# chain: KKKKKKKKKKKKKKKKKKKKKKKKKKKKKKKKKKKKKKKKKKKKKKKKKKKKKKKKKKKKKKKKKKKKKKKKKKKKKKKKKKKKKKKKKKKKKKKKKKKK
# modifications: K100
# notes: lysine homopolypeptide
# B2: K100(rac-L)20: synthetic cationic copolypeptide: lysine segment and shorter racemic hydrophobic leucine block (peptide)
# chain: KKKKKKKKKKKKKKKKKKKKKKKKKKKKKKKKKKKKKKKKKKKKKKKKKKKKKKKKKKKKKKKKKKKKKKKKKKKKKKKKKKKKKKKKKKKKKKKKKKKKLLLLLLLLLLLLLLLLLLLL
# modifications: racemic leucine block; K100(rac-L)20; rac-L (101)..(120)
# B3: K100L20: synthetic cationic copolypeptide: lysine segment and leucine segment (peptide)
# chain: KKKKKKKKKKKKKKKKKKKKKKKKKKKKKKKKKKKKKKKKKKKKKKKKKKKKKKKKKKKKKKKKKKKKKKKKKKKKKKKKKKKKKKKKKKKKKKKKKKKKLLLLLLLLLLLLLLLLLLLL
# modifications: K100L20
# Assays:
# [1] = texture analysis profile (firmness, work of adhesion); type: physicochemical; conditions: 1% (w/w) polypeptide and 1% (w/w) HEC in water
# From the text: FIGS. 20A and 20B show A) firmness values for mixtures of 1% solutions of synthetic cationic polypeptides with 1% hydroxyethyl cellulose (HEC, Natrosol HHX) in water (FIG. 20A); and B) work of adhesion values for mixtures of 1% solutions of copolypeptides with 1% hydroxyethyl cellulose (HEC, Natrosol HHX) in water (FIG. 20B).
# Values for 1% (w/w) polypeptide in water. b. Values for 1% polypeptide/1% HEC (w/w) in water. c. Interaction parameter: ΔF=Fmix(poly/HEC)−(Fpoly+FHEC). Where Fmix(poly/HEC)=firmness of 1% polypeptide/1% HEC, Fpoly=firmness of 1% polypeptide solution, and FHEC=firmness of 1% HEC (Natrosol HHX) in water. Similar treatment of data was performed for the work of adhesion interaction parameter.
# A texture analysis profile has been used to determine the effects of block copolypeptide composition and hydrophobic enantiopurity on the mechanical properties of the block copolypeptide/HEC mixtures (FIGS. 20A and 20B). […] This corresponds to an interaction parameter value of 14.45 mN and an overall increase of over 170% over what would be expected from the additive contributions of the individual components. […] Hydrophobic block length was also shown to be influential.
# P. aeruginosa biofilms = assay: in vitro P. aeruginosa biofilm assay; type: cell-based; conditions: 0.1-20 mg/mL, 24 hour contact time
# [2] = test system: S. epidermidis, P. aeruginosa (pig clinical isolate); assay: open-wound porcine treatment model; type: in vivo; conditions: wounds contaminated, treated after 2 hrs, biopsied 4 hrs after treatment
# Procedure: Each wound was contaminated with bacteria (S. epidermidis, P. aeruginosa (pig clinical isolate)). After 2 hrs, wounds were rinsed with saline and treated with 5 mL of test article or water. Test articles: K100(rac-L)20 (SEQ ID NO: 12) at 10, 2, 0.4 mg/mL, 10 mg/mL K100(rac-L)20 (SEQ ID NO: 12) and 30 mg/mL PEG 400 in water, and deionized water as a control. Gauze soaked in test article or water was placed on top of the wounds. Wounds were biopsied at 4 hrs after treatment.
# Aqueous compositions that include mixtures of synthetic cationic polypeptides with two different polymers (polyethylene glycol 400 and hydroxyethyl cellulose) were both found to be effective in vivo. As depicted in FIG. 25, K100(rac-L)20 (SEQ ID NO: 12) was effective in an porcine open-wound treatment model alone and in combination with PEG 400. […] The aqueous compositions described herein can be used for any one or more treatments and/or applications, including but not limited to prevention of infections, treatment of infections, treatment for topical anti-infection, treatment for microbial decolonization, wound treatment, surgical site treatment, trauma treatment, burn treatment, treatment of diabetic foot ulcers, eye treatment, treatment of vaginal infections, treatment of urinary tract infections, hand sanitization, for coating prosthetic devices and/or implants, food preservation and solution preservation.
Molecule,effect on adhesiveness / work of adhesion of mixing polypeptide with HEC [1],effect on firmness of mixing polypeptide with HEC [1],effectiveness against P. aeruginosa biofilms in vitro (P. aeruginosa biofilms),effectiveness in porcine open-wound treatment model [2]
B1,failed to enhance,failed to enhance,,
B2,no effect,no effect,effective,effective
B3,antagonistic,increased firmness,,
